Experimental data reported in patent publication US20230103563A1 (Sanofi, published 2023).
Values belong to the binder of their own block, whether it stands above or below them.

Tests used:
[1] = molecular target: T1, human IL4 (IL004, Millipore) (human, UniProt P05112 25-153); assay: SPR (Biacore 3000), construct captured, IL4 as analyte; summary table
T1 construct: Bought protein, used as analyte in SPR; also called interleukin IL4
T1 sequence (looked up): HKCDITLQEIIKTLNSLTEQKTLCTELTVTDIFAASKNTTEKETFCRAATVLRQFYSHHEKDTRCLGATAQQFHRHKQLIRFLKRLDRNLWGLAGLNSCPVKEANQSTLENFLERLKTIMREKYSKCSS
Experimental: (§1) Binding of antigens to the antibody constructs was measured using surface plasmon resonance (SPR) on a BIAcore 3000 instrument (GE Healthcare) with HBS-EP buffer (GE Healthcare). As antigens human IL4 (IL004, Millipore) and human IL13 (IL012, Millipore) were used. The capture antibody (human antibody capture kit, His capture kit, Fab capture kit, GE Life Sciences) was immobilized via primary amine groups (11000 RU) on a research grade CMS chip (GE Life Sciences) using standard procedures. […] The antigens human IL4 and human IL13 were used as analytes and injected for 240 sec with a dissociation time of 300 sec at a flow rate of 30 μL/min. IL4 and IL13 were used in a dilution series of 0.1 nM to 3 nM and 0.8 nM to 25 nM, respectively. Chip surfaces were regenerated with 2 min injects of the regeneration buffer provided with the capture kit. Sensorgrams were double referenced with a blank chip surface and HBS-EP buffer blanks. Recombinant human neonatal Fc-receptor (FcRn) protein was immobilized via primary amine groups (200 RU) in the sample flow cell compartment of a research grade CMS chip (GE Life Sciences) using standard procedures. The reference flow cell compartment was activated and deactivated without FcRn immobilization to generate a blank chip surface. For the analysis an assay buffer with pH 6.0 was used (150 mM NaCl, 20 mM Na-phosphate, 0.05% surfactant P20, pH6.0). The antibody was used as analyte at 800 nM dilution in assay buffer and injected over reference and sample flow cells for 240 sec with a dissociation time of 300 sec at a flow rate of 30 μL/min. Chip surfaces were regenerated with 2 min injects of HBS-EP buffer at 30 μl/min. Sensorgrams were double referenced with a the blank chip surface and HBS-EP buffer blanks. All data analysis was done using the BIAevaluation software v4.1.

[2] = molecular target: T1, human IL4 (IL004, Millipore); assay: SPR (Biacore), variant captured with human antibody capture kit, IL4 as analyte
Experimental: as §1

[3] = molecular target: T1, human IL4 (IL004, Millipore); assay: SPR (Biacore), variant captured with Fab-capture kit, IL4 as analyte
Experimental: as §1

[4] = molecular target: T1, human IL4 (IL004, Millipore); assay: SPR (Biacore), variant captured with His-capture kit, IL4 as analyte
Experimental: as §1

B3: protein variant (3), CODV-Fab Split CH2 (anti-IL4/anti-IL13) (bispecific antibody, IgG1)
chain 1: DIVLTQSPASLAVSLGQRATISCRASESVDSYGQSYMHWYQQKAGQPPKLLIYLASNLESGVPARFSGSGSRTDFTLTIDPVQAEDAATYYCQQNAEDSRTFGGGTKLEIKGQPKAAPSDIQMTQSPASLSVSVGDTITLTCHASQNIDVWLSWFQQKPGNIPKLLIYKASNLHTGVPSRFSGSGSGTGFTLTISSLQPEDIATYYCQQAHSYPFTFGGGTKLEIKTKGPSVFRTVAAPSVFIFPPSDEQLKSGTASVVCLLNNFYPREAKVQWKVDNALQSGNSQESVTEQDSKDSTYSLSSTLTLSKADYEKHKVYACEVTHQGLSSPVTKSFNRGECGGPSVFLFPPKPKDTLMISRTPEVTCVVVDVSHEDPEVKFNWYVDGVEVHN
chain 2: QVQLQQSGPELVKPGASVKISCKASGYSFTSYWIHWIKQRPGQGLEWIGMIDPSDGETRLNQRFQGRATLTVDESTSTAYMQLRSPTSEDSAVYYCTRLKEYGNYDSFYFDVWGAGTLVTVSSSEVQLKESGPGLVAPGGSLSITCTVSGFSLTDSSINWVRQPPGKGLEWLGMIWGDGRIDYADALKSRLSISKDSSKSQVFLEMTSLRTDDTATYYCARDGYFPYAMDFWGQGTSVTVSSASTKGPSVFPLAPSSKSTSGGTAALGCLVKDYFPEPVTVSWNSGALTSGVHTFPAVLQSSGLYSLSSVVTVPSSSLGTQTYICNVNHKPSNTKVDKKVEPKSCDKGGGAKTKPREEQYNSTYRVVSVLTVLHQDWLNGKEYKCKVSNKALPAPIEKTISKAKGQPREHHHHHH
notes: Fab-like cross-over format with IgG1 split CH2 domain
Kd [1]: 5.48 pM
Ka [3]: 1.83e+11 M⁻¹
Kd [3]: 5.48 pM
koff [3]: 0.000452 s⁻¹
kon [3]: 8.26e+07 M⁻¹ s⁻¹

B4: protein variant (2), DVD-Fab Split CH2 (anti-IL4/anti-IL13) (bispecific antibody, IgG1)
chain 1: DIVLTQSPASLAVSLGQRATISCRASESVDSYGQSYMHWYQQKAGQPPKLLIYLASNLESGVPARFSGSGSRTDFTLTIDPVQAEDAATYYCQQNAEDSRTFGGGTKLEIKGGGGSGGGGSDIQMTQSPASLSVSVGDTITLTCHASQNIDVWLSWFQQKPGNIPKLLIYKASNLHTGVPSRFSGSGSGTGFTLTISSLQPEDIATYYCQQAHSYPFTFGGGTKLEIKRTVAAPSVFIFPPSDEQLKSGTASVVCLLNNFYPREAKVQWKVDNALQSGNSQESVTEQDSKDSTYSLSSTLTLSKADYEKHKVYACEVTHQGLSSPVTKSFNRGECGGPSVFLFPPKPKDTLMISRTPEVTCVVVDVSHEDPEVKFNWYVDGVEVHN
chain 2: EVQLKESGPGLVAPGGSLSITCTVSGFSLTDSSINWVRQPPGKGLEWLGMIWGDGRIDYADALKSRLSISKDSSKSQVFLEMTSLRTDDTATYYCARDGYFPYAMDFWGQGTSVTVSSGGGGSGGGGSQVQLQQSGPELVKPGASVKISCKASGYSFTSYWIHWIKQRPGQGLEWIGMIDPSDGETRLNQRFQGRATLTVDESTSTAYMQLRSPTSEDSAVYYCTRLKEYGNYDSFYFDVWGAGTLVTVSSASTKGPSVFPLAPSSKSTSGGTAALGCLVKDYFPEPVTVSWNSGALTSGVHTFPAVLQSSGLYSLSSVVTVPSSSLGTQTYICNVNHKPSNTKVDKKVEPKSCDKGGGAKTKPREEQYNSTYRVVSVLTVLHQDWLNGKEYKCKVSNKALPAPIEKTISKAKGQPREHHHHHH
notes: Fab-like format with IgG1 split CH2 domain
Kd [1]: 30 pM
Ka [4]: 3.33e+10 M⁻¹
Kd [4]: 30 pM
koff [4]: 0.000426 s⁻¹
kon [4]: 1.42e+07 M⁻¹ s⁻¹
Ka [3]: 5.73e+10 M⁻¹
Kd [3]: 17.5 pM
koff [3]: 0.000259 s⁻¹
kon [3]: 1.48e+07 M⁻¹ s⁻¹

Next, values leading:

Kd [1]: 1.3 pM
Kd [2]: 1.3 pM
koff [2]: 8.91e-05 s⁻¹
kon [2]: 6.84e+07 M⁻¹ s⁻¹
B1: protein variant (11), Split CH2 bivalent bispecific antibody (bispecific antibody, human IgG4 S228P, kappa)
heavy: EVQLKESGPGLVAPGGSLSITCTVSGFSLTDSSINWVRQPPGKGLEWLGMIWGDGRIDYADALKSRLSISKDSSKSQVFLEMTSLRTDDTATYYCARDGYFPYAMDFWGQGTSVTVSSASTKGPSVFPLAPCSRSTSESTAALGCLVKDYFPEPVTVSWNSGALTSGVHTFPAVLQSSGLYSLSSVVTVPSSSLGTKTYTCNVDHKPSNTKVDKRVESKYGPPCPPCPAPEFEGGPSVFLFPPKPKDTLMISRTPEVTCVVVDVSQEDPEVQFNWYVDGVEVHNAKTKPREEQFNSTYRVVSVLTVLHQDWLNGKEYKCKVSNKGLPSSIEKTISKAKGQPREPQVCTLPPSRDELTKNQVSLSCAVKGFYPSDIAVEWESNGQPENNYKTTPPVLDSDGSFFLVSKLTVDKSRWQQGNVFSCSVMHEALHNRFTQKSLSLSPG
light: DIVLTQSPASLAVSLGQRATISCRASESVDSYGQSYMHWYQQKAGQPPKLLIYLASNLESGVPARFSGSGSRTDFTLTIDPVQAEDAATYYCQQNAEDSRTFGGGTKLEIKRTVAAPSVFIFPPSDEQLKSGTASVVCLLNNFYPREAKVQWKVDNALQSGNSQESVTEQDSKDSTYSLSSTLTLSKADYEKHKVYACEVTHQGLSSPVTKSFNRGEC
chain 1: QVQLQQSGPELVKPGASVKISCKASGYSFTSYWIHWIKQRPGQGLEWIGMIDPSDGETRLNQRFQGRATLTVDESTSTAYMQLRSPTSEDSAVYYCTRLKEYGNYDSFYFDVWGAGTLVTVSSGGGGGSGGGGGSAKTKPREEQYNSTYRVVSVLTVLHQDWLNGKEYKCKVSNKALPAPIEKTISKAKGQPREGGGSGSAESKYGPPCPPCPAPEFEGGPSVFLFPPKPKDTLMISRTPEVTCVVVDVSQEDPEVQFNWYVDGVEVHNAKTKPREEQFNSTYRVVSVLTVLHQDWLNGKEYKCKVSNKGLPSSIEKTISKAKGQPREPQVYTLPPCRDELTKNQVSLWCLVKGFYPSDIAVEWESNGQPENNYKTTPPVLDSDGSFFLYSKLTVDKSRWQQGNVFSCSVMHEALHNHYTQKSLSLSPG
chain 2: DIQMTQSPASLSVSVGDTITLTCHASQNIDVWLSWFQQKPGNIPKLLIYKASNLHTGVPSRFSGSGSGTGFTLTISSLQPEDIATYYCQQAHSYPFTFGGGTKLEIKGGGGPSVFLFPPKPKDTLMISRTPEVTCVVVDVSHEDPEVKFNWYVDGVEVHN
notes: Four chains; on one arm CH1 and CL are replaced by the split CH2 domain; heavy chains heterodimerize by knob-into-hole mutations

Kd [1]: 0.922 pM
Kd [2]: 0.922 pM
B2: protein variant (12), Split CH2 bivalent bispecific antibody (bispecific antibody, human IgG4 S228P, kappa)
heavy: B1 heavy
light: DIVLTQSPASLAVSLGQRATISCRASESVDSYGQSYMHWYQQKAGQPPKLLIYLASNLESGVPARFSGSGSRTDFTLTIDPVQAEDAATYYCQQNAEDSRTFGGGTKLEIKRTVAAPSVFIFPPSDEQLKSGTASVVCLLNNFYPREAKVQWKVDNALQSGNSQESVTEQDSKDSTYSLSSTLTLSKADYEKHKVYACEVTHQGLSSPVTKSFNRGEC
chain 1: DIQMTQSPASLSVSVGDTITLTCHASQNIDVWLSWFQQKPGNIPKLLIYKASNLHTGVPSRFSGSGSGTGFTLTISSLQPEDIATYYCQQAHSYPFTFGGGTKLEIKGGGGGSGGGGGSAKTKPREEQYNSTYRVVSVLTVLHQDWLNGKEYKCKVSNKALPAPIEKTISKAKGQPREGGGSGSAESKYGPPCPPCPAPEFEGGPSVFLFPPKPKDTLMISRTPEVTCVVVDVSQEDPEVQFNWYVDGVEVHNAKTKPREEQFNSTYRVVSVLTVLHQDWLNGKEYKCKVSNKGLPSSIEKTISKAKGQPREPQVYTLPPCRDELTKNQVSLWCLVKGFYPSDIAVEWESNGQPENNYKTTPPVLDSDGSFFLYSKLTVDKSRWQQGNVFSCSVMHEALHNHYTQKSLSLSPG
chain 2: QVQLQQSGPELVKPGASVKISCKASGYSFTSYWIHWIKQRPGQGLEWIGMIDPSDGETRLNQRFQGRATLTVDESTSTAYMQLRSPTSEDSAVYYCTRLKEYGNYDSFYFDVWGAGTLVTVSSGGGGPSVFLFPPKPKDTLMISRTPEVTCVVVDVSHEDPEVKFNWYVDGVEVHN
notes: as for B1
